US20130040994A1

Molecular target: quenched fluorescein gelatin substrate (DQ gelatin, Invitrogen D12054)

Sequence of catalytic rat MMP9 (80 kD active MMP9) (enzyme) (P50282 108-708 limits assumed): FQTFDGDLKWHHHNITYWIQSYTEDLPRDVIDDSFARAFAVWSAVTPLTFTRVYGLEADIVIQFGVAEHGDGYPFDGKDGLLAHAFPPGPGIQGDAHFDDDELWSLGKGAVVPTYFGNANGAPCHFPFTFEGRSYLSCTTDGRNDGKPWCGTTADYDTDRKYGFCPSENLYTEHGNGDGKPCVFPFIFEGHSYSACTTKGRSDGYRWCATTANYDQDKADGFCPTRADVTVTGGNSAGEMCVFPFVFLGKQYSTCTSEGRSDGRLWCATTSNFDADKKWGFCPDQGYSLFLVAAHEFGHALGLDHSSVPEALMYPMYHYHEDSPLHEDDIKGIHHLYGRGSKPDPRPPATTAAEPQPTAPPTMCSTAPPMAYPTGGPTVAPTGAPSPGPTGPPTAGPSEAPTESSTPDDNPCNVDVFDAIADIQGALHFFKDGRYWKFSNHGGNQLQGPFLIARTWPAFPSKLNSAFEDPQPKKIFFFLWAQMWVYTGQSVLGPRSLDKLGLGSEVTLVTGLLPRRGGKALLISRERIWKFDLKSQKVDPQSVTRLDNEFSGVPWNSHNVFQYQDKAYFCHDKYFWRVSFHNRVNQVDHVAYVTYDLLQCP

catalytic rat MMP9 (80 kD active MMP9) (enzyme)
gelatinase activity by in situ zymography, Intensity (RLU × 10^6), Mean: 1.09e+08 RLU
